According to patent US20200038441A1 (NANTKWEST, published 2020):

Target: PD-L1 on SUP-B15 PD-L1+ cells (UniProt Q9NZQ7 19-290, limits assumed)
Assay: cell-based or functional assay

Sequence of PD-L1 on SUP-B15 PD-L1+ cells (Q9NZQ7 19-290 limits assumed): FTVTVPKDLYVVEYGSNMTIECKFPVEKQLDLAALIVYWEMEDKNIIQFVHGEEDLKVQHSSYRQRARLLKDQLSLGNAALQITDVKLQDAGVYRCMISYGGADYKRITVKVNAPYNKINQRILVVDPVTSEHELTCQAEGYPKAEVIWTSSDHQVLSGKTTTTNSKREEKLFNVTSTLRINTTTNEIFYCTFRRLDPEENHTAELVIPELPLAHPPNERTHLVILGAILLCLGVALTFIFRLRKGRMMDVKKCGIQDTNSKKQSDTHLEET

B1: PD-L1 CAR expressed on aTGFβ/PD-L1 t-haNK cells (other)
chain: MDWIWRILFLVGAATGAHSAQPANIQMTQSPSSVSASVGDRVTITCRASQDISRWLAWYQQKPGKAPKLLIYAASSLQSGVPSRFSGSGSGTDFALTISSLQPEDFATYYCQQADSRFSITFGQGTRLEIKGGGGSGGGGSGGGGSGGGGSEVQLVQSGGGLVQPGGSLRLSCAASGFTFSSYSMNWVRQAPGKGLEWVSYISSSSSTIQYADSVKGRFTISRDNAKNSLYLQMNSLRDEDTAVYYCARGDYYYGMDVWGQGTTVTVSSAAALSNSIMYFSHFVPVFLPAKPTTTPAPRPPTPAPTIASQPLSLRPEACRPAAGGAVHTRGLDFACFWVLVVVGGVLACYSLLVTVAFIIFWVRLKIQVRKAAITSYEKSDGVYTGLSTRNQETYETLKHEKPPQ
- specific killing of SUP-B15 PD-L1+ target cells, 4 h cytotoxicity assay, effector to target ratio of 8: ~70%
